{
  "source": "paper PMC10269810",
  "about": "“RNA Encapsulation Mode and Evolutionary Insights from the Crystal Structure of Emaravirus Nucleoprotein”",
  "key": {"[1]": {"molecular_target": "trypsin-treated fig mosaic virus nucleoprotein lacking the first 45 N-terminal residues (N^ΔN45) (fig mosaic virus)", "assay": "crystal structure; RNA-free N^ΔN45, hanging drop at 16°C, sodium formate pH 7.0, space group P2_(1), four molecules in the asymmetric unit"}, "[2]": {"molecular_target": "trypsin-treated fig mosaic virus nucleoprotein lacking the first 45 N-terminal residues (N^ΔN45) (fig mosaic virus)", "assay": "crystal structure; N^ΔN45 co-crystallized with 42-mer poly(U) ssRNA, 20% PEG 3350, 0.2 M magnesium formate pH 5.9, space group P2_(1)2_(1)2_(1)"}, "[3]": {"molecular_target": "fig mosaic virus nucleoprotein, full length (N^fl) (fig mosaic virus)", "assay": "SEC-MALS; RNA-free purified N^fl; conditions not given"}, "FMV N full length (Nfl)": {"molecular_target": "FMV N full length (Nfl) (Fig mosaic virus (Fimoviridae, …, UniProt I2FFM8 1-315))", "assay": "fluorescence polarization; RNA 1 uM; ITC: 20 mM Tris pH 7.4, 150 mM NaCl, 5% glycerol, 5 mM beta-ME, 25 C; FP: 1 uM RNA, 37 C 20 min incubation, buffer not stated (protein stock 20 mM Tris pH 7.5)", "conditions": "protein: recombinant; tags: N-terminal 6xHis removed by TEV; chain copies: 4; label: 5' 6-carboxyfluorescein (FAM); single strand"}},
  "note": "Where “and” joins values, the source holds several entries; their conditions need not be identical. Equal values may be shown once.",
  "data": [
    {"molecule": "trypsin-treated fig mosaic virus nucleoprotein lacking the first 45 N-terminal residues (N^ΔN45) (domain or fragment)", "values": [
      {"measurement": "stoichiometry N", "setting": "[1]", "value": 4},
      {"measurement": "stoichiometry N", "setting": "[2]", "value": 4}
    ]},
    {"molecule": "fig mosaic virus nucleoprotein, full length (N^fl) (natural protein)", "values": [
      {"measurement": "stoichiometry N", "setting": "[3]", "value": "4 and 3 and 5"}
    ]},
    {"molecule": "UUUUUUUUUUUUUUUUUUUUUUUUUUUUUUUUUUUUUUUUUU (ssRNA)", "note": "[poly(rU) 42-mer, FAM]", "values": [
      {"measurement": "Kd", "setting": "FMV N full length (Nfl)", "value": "~5", "unit": "µM"}
    ]}
  ]
}
